Measurements published in patent US20110076248A1 (MYRIAD GENETICS, published 2011).

T1: activation domain-Tsg101 construct (full-length Tsg101 in GADpN2: SV40NLS-GAL4 (768-881)-Tsg101) (human, UniProt P04386 768-881; Q99816 1-390)
T1 sequence: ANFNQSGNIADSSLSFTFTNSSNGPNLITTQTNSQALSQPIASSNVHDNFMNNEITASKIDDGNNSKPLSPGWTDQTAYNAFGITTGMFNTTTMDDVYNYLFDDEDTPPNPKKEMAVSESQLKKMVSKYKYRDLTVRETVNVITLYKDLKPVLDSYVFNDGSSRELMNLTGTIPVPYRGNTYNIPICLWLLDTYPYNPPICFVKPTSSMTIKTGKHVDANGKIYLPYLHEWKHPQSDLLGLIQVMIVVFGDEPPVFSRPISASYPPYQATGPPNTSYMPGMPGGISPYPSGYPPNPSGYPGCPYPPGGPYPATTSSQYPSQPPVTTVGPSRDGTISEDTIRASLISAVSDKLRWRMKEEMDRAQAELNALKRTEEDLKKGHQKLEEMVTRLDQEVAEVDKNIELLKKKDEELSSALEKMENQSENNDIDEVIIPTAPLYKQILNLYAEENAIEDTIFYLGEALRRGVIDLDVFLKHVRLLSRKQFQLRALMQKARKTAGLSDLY


Columns and labels:
[1] = biological target: T1, activation domain-Tsg101 construct …; assay: cell-based or functional assay
[2] = biological target: T1, activation domain-Tsg101 construct …; assay: yeast two-hybrid, filter lift β-Gal assay

| Binder | β-galactosidase activity in the two-hybrid liquid culture assay [1] | binding result [2] |
| --- | --- | --- |
| binding domain-wild type p6gag construct (HIV1 p6 peptide of the HIV1.NL43 strain GAG protein in pGBT.Q) (other) LQSRPEPTAPPEESFRFGEETTTPSQKQEPIDKELYPLASLRSLFGSDPSSQ | > 300 fold over background | – |
| binding domain-mutant p6gag construct p6(A9R) (other, The mutation number counts on p6gag) LQSRPEPTRPPEESFRFGEETTTPSQKQEPIDKELYPLASLRSLFGSDPSSQ | – | no binding |
| binding domain-mutant p6gag construct p6(P10L) (other, The mutation number counts on p6gag) LQSRPEPTALPEESFRFGEETTTPSQKQEPIDKELYPLASLRSLFGSDPSSQ | – | no binding |
| binding domain-mutant p6gag construct p6(P7L) (other, The mutation number counts on p6gag) LQSRPELTAPPEESFRFGEETTTPSQKQEPIDKELYPLASLRSLFGSDPSSQ | – | no binding |
